Experimental data taken from publication PMC11586414.
Values joined by “and” are separate entries in the source; they are usually repeats but may differ in a detail not shown here. Identical values can stand only once.

Columns and labels:
[1] = molecular target: HEPN^Lpg WT (HEPN toxin of the Legionella pneumophila HEPN–MNT module) (Legionella pneumophila Philadelphia 1) (UniProt Q5ZRG2); assay: crystal structure
[2] = molecular target: HEPN^Lpg WT (HEPN toxin of the Legionella pneumophila HEPN–MNT module) (Legionella pneumophila Philadelphia 1) (UniProt Q5ZRG2); assay: AUC

| Substance | stoichiometry N (MNT^Lpg per HEPN^Lpg chain (1:4)) [1] | stoichiometry N [2] | stoichiometry N [1] |
| --- | --- | --- | --- |
| MNT^Lpg (MNT antitoxin of the Legionella pneumophila HEPN–MNT module) (from UniProt Q5ZRG1 1-108) (enzyme) | 0.25 | – | – |
| HEPN^Lpg WT (HEPN toxin of the Legionella pneumophila HEPN–MNT module) (from UniProt Q5ZRG2 1-139) (natural protein) | – | 2 and 4 | 4 |
